Patent US20240093191A1, “COMPOSITIONS AND METHODS FOR TREATING DISEASE ASSOCIATED WITH DUX4 OVEREXPRESSION” (RESEARCH INSTITUTE AT NATIONWIDE CHILDREN'S HOSPITAL, priority 2021, published 2024)

Tested on: mir-675R (reverse complementary sequence of mir-675-5p)
Assay: Dual-luciferase assay with mir-675 perfect target site (mir-675R) as Renilla 3'UTR
Format: cell-based, human
Conditions: mir-675R perfect target site; normalized to milacZ
Source text: The QPCR was done using the Taqman probes designed to recognize the mature sequence of mir-675-5p and -3p. mir-675-3p expression was 2.20±0.15-fold higher than that of mir-675-5p (P<0.0001, ANOVA, N=3). Gene expression was normalized to the housekeeping gene RPL13A. Results were reported as the average relative gene expression±SEM of three replicates (N=3). […] The miRNA (pmoles) was used at 40-fold of the RenLuc-DUX4-FL (pmoles). When testing the U6.mir-675-3p construct, the relative Renilla luciferase kept on average 95% (P<0.2, ANOVA) of its activity, even though U6.mir-675-3p expressed high levels of mir-675-3p relative to the negative control mir-675-5p levels. On the other hand, U6.mir-675-5p was able to reduce the relative Renilla luciferase activity on average by 33±3% (P<0.0001, ANOVA, N=3). All readings were normalized to the milacZ negative control. Results were reported as the average relative Renilla luciferase activity±SEM of three replicates (N=3). […] This sequence was cloned as a 3′UTR downstream the Renilla luciferase gene. […] All readings were normalized to the milacZ negative control. […]
Dual Luciferase Assay. […] Luciferase activity was measured 24h or 48h after transfection. DUX4 gene silencing was determined as previously described [Wallace et al., Mol. Ther. Methods Clin. Dev. […]

B1: U6.mir-675: U6 promoter-driven mir-675 expression plasmid with 40 nt 5' and 47 nt 3' flanking sequences (nucleic acid)
DNA: GACGCCGCCATCTCTAGGCCCGCGCCGGCCCCCTCGCACAGACTTGTGGGAGAAGCTCGGCTACTCCCCTGCCCCGGTTAATTTGCATATAATATTTCCTAGTAACTATAGAGGCTTAATGTGCGATAAAAGACAGATAATCTGTTCTTTTTAATACTAGCTACATTTTACATGATAGGCTTGGATTTCTATAAGAGATACAAATACTAAATTATTATTTTAAAAAACAGCACAAAAGGAAACTCACCCTAACTGTAAAGTAATTGTGTGTTTTGAGACTATAAATATCCCTTGGAGAAAAGCCTTGTTTGCGTTTAGTGAACCGTCAGATGGTACCGTTTAAACTCGAGCCCAGGGTCTGGTGCGGAGAGGGCCCACAGTGGACTTGGTGACGCTGTATGCCCTCACCGCTCAGCCCCTGGGACTAGAGCGGCCGCCACAGCGGGGAGATCCAGACATGATAAGATACATTTTTT
reduction of relative Renilla luciferase activity (maximum inhibition): 41±12%
